The results in this text go back to article PMC5838168, “Effect of human very low-density lipoproteins on cardiotrophin-like cytokine factor 1 (CLCF1) activity” (Scientific Reports, 2018).

The experiment deals with T1, recombinant ApoE3 (human, UniProt P02649 19-317).
T1 construct: Apolipoprotein E, isoform ApoE3; also called apolipoprotein E3; source: bought: BioVision
Put plainly: AlphaScreen or HTRF; AlphaLISA: ApoE2, 3 or 4 (0-100 nM) with biotinylated CLCF1 (10 nM) in PBS 0.1% BSA, rat anti-ApoE IgG (3 nM), anti-rat IgG acceptor beads, streptavidin donor beads; also with ApoE (30 nM) preincubated with DMPC (0-1000 uM) 1 h at 37 °C. The conditions noted are these: both partners purified.

T1 sequence (P02649 19-317): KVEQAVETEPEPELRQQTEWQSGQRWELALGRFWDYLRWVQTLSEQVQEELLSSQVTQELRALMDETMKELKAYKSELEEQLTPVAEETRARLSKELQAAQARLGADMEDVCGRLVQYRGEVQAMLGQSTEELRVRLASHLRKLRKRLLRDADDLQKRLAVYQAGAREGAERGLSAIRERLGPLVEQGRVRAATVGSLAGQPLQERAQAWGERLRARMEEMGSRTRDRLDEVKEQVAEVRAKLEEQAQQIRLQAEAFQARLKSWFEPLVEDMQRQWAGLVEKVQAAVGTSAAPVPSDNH

B1: biotinylated human CLCF1 (cardiotrophin-like cytokine factor 1) (ligand, UniProt Q9UBD9 28-225, looked up)
chain: LNRTGDPGPGPSIQKTYDLTRYLEHQLRSLAGTYLNYLGPPFNEPDFNPPRLGAETLPRATVDLEVWRSLNDKLRLTQNYEAYSHLLCYLRGLNRQAATAELRRSLAHFCTSLQGLLGSIAGVMAALGYPLPQPLPGTEPTWTPGPAHSDFLQKMDDFWLLKELQTWLWRSAKDFNRLKKKMQPPAAAVTLHLGAHGF
modifications: biotin on the Avitag (BirA biotin-ligase)
notes: Cardiotrophin-like cytokine factor 1 (CLCF1), human, mature protein, codon optimized synthetic cDNA in pET24d; also called biotinylated hCLCF1; hCLC biot
As for B1, the binding result is recorded as “binds”.
